Experiment in all cases: HMF sulfoconjugation assay
Common to all, as to conditions: other: catalytic efficiency of HMF sulfoconjugation; pH 7.4

Substrate in series [1]: O=Cc1ccc(CO)o1
The format is biochemical, human. The procedure:
Cytosolic fractions containing individual SULT forms were prepared from transgenic S. typhimurium TA1538. Table S1 in the Supplementary Material provides a summary of the thirty SULTs used in the current study together with references describing the cloning of the respective S. typhimurium TA1538 strains. The expressed SULT forms are denoted with the prefixes h, m and r for human, mouse and rat enzymes, respectively. Bacteria were grown in Luria Broth medium containing ampicillin (100 µg/ml) by stirring for 8 h at 200 revolutions/min at 37 °C. The bacterial suspensions were centrifuged at 5,000 g for 10 min. The sediments were washed twice with 25 ml of 10 mM potassium phosphate buffer (pH 7.4)/50 mM potassium chloride (KCP buffer) and centrifuged again. The pellets were taken up in 800 µl KCP buffer and sonicated thrice for 15 s with 30 s pauses in between. The soluble fraction was attained by centrifuging for 1 h at 100,000 g. The supernatants (in the following termed cytosolic preparations) were frozen at −80 °C. The protein concentrations were determined according to a bicinchoninic acid (BCA) assay protocol. The SULT concentrations in the cytosolic preparations were estimated after electrophoretic separation and immunodetection using inclusion bodies of different SULT forms as standards (Teubner et al. [2007]). The preparation of SULT inclusion bodies and the immunodetection of SULTs is described in the Supplementary Material, which also contains a representative immunoblot of different amounts of rSult1a1standard and a cytosolic preparation of S. typhimurium expressing rSult1a1 (Fig. S1).
(§1) The reactions were conducted in mixtures of 100 µl containing 25–200 µg protein, 50 mM potassium phosphate buffer (pH 7.4), 5 mM MgCl2, 50 µM PAPS and different concentrations of HMF at 37 °C. Preliminary experiments ensured that measurements were recorded under ‘linear’ conditions, i.e., doubling of protein concentration or incubation time was doubling the amount of sulfate ester formed. […]
SMF concentrations of the clear supernatants were analyzed by UPLC-MS/MS. The protocol was adapted from the quantification of SMF in plasma samples of HMF-treated mice (Monien et al. [2009]). In short, the supernatants were analyzed using a UPLC system (Waters) connected to a Quattro Premier XE tandem quadrupole mass spectrometer (Waters) using the negative electrospray ionization mode. […] The fragmentation reactions of SMF yielding two principal ions, the sulfate ion radical (m/z = 204.9 → 96.0) and the protonated sulfonate ion (m/z = 204.9 → 81.0) were monitored. […] SMF was quantified using an external calibration line that was linear in the concentration range of 1.0 nM (4 fmol/injection) to 2,500 (10 pmol/injection) SMF (r ^2 ≥ 0.99). […]

Substrate in series [2]: O=Cc1ccc(CO)o1
Format: biochemical, rat. The procedure:
(§2) Cytosolic fractions containing individual SULT forms were prepared from transgenic S. typhimurium TA1538. Table S1 in the Supplementary Material provides a summary of the thirty SULTs used in the current study together with references describing the cloning of the respective S. typhimurium TA1538 strains. The expressed SULT forms are denoted with the prefixes h, m and r for human, mouse and rat enzymes, respectively. Bacteria were grown in Luria Broth medium containing ampicillin (100 µg/ml) by stirring for 8 h at 200 revolutions/min at 37 °C. The bacterial suspensions were centrifuged at 5,000 g for 10 min. […] The protein concentrations were determined according to a bicinchoninic acid (BCA) assay protocol. […]
as §1
(§3) SMF concentrations of the clear supernatants were analyzed by UPLC-MS/MS. The protocol was adapted from the quantification of SMF in plasma samples of HMF-treated mice (Monien et al. [2009]). […]

Substrate in series [3]: O=Cc1ccc(CO)o1
The format is biochemical, mouse. The procedure:
as §2, §1, §3

B1: hSULT1A1 (Homo sapiens) (protein)
chain: MELIQDTSRPPLEYVKGVPLIKYFAEALGPLQSFQARPDDLLISTYPKSGTTWVSQILDMIYQGGDLEKCHRAPIFMRVPFLEFKAPGIPSGMETLKDTPAPRLLKTHLPLALLPQTLLDQKVKVVYVARNAKDVAVSYYHFYHMAKVHPEPGTWDSFLEKFMVGEVSYGSWYQHVQEWWELSRTHPVLYLFYEDMKENPKREIQKILEFVGRSLPEETVDFVVQHTSFKEMKKNPMTNYTTVPQEFMDHSISPFMRKGMAGDWKTTFTVAQNERFDADYAEKMAGCSLSFRSEL
notes: made in house; host or cells: Salmonella typhimurium TA1538 (cytosolic fraction, not purified)
Consider B1, for which the kcat/Km in series [1] is 13.7 M⁻¹ s⁻¹.

B2: rSult1c1 (Rattus norvegicus) (protein)
chain: MSLEKMKDLHLGEQDLQPETREVNGILMSKLMSDNWDKIWNFQAKPDDLLIATYAKAGTTWTQEIVDMIQNDGDVQKCQRANTYDRHPFIEWTLPSPLNSGLDLANKMPSPRTLKTHLPVHMLPPSFWKENSKIIYVARNAKDCLVSYYYFSRMNKMLPDPGTLGEYIEQFKAGKVLWGSWYDHVKGWWDVKDQHRILYLFYEDMKEDPKREIKKIAKFLEKDISEEVLNKIIYHTSFDVMKENPMANYTTLPSSIMDHSISPFMRKGMPGDWKNYFTVAQSEDFDEDYRRKMAGSNITFRTEI
notes: made in house; host or cells: Salmonella typhimurium TA1538 (cytosolic fraction, enzyme not purified)
B2: the kcat/Km in series [2] stood at 0.12 M⁻¹ s⁻¹.

B3: mSult1a1 (Mus musculus) (protein)
chain: MEPLRKPLVPVKGIPLIKYFAETMEQLQNFTAWPDDVLISTYPKSGTNWMSEIMDMIYQGGKLDKCGRAPVYARIPFLEFSCPGVPPGLETLKETPAPRIIKTHLPLSLLPQSLLDQKIKVIYVARNAKDVVVSYYNFYKMAKLHPDPGTWESFLENFMDGKVSYGSWYQHVKEWWELRRTHPVLYLFYEDMKENPKREIKKILEFLGRSLPEETVDLIVHHTSFKKMKENPMANYTTIPTEVMDHTIYPFMRKGTIGDWKNTFTVAQSEHFDAHYAKLMTGCDFTFRCQI
notes: as for B2
With B3, in series [3], the kcat/Km was 15.8 M⁻¹ s⁻¹.

B4: hSULT1A2 (Homo sapiens) (protein)
chain: MELIQDISRPPLEYVKGVPLIKYFAEALGPLQSFQARPDDLLISTYPKSGTTWVSQILDMIYQGGDLEKCHRAPIFMRVPFLEFKVPGIPSGMETLKNTPAPRLLKTHLPLALLPQTLLDQKVKVVYVARNAKDVAVSYYHFYHMAKVYPHPGTWESFLEKFMAGEVSYGSWYQHVQEWWELSRTHPVLYLFYEDMKENPKREIQKILEFVGRSLPEETVDLMVEHTSFKEMKKNPMTNYTTVRREFMDHSISPFMRKGMAGDWKTTFTVAQNERFDADYAKKMAGCSLSFRSEL
notes: as for B1
As to B4, in series [1], the catalytic efficiency (kcat/Km) is 0.71 M⁻¹ s⁻¹.

B5: hSULT1A3 (Homo sapiens) (protein)
chain: MELIQDTSRPPLEYVKGVPLIKYFAEALGPLQSFQARPDDLLINTYPKSGTTWVSQILDMIYQGGDLEKCNRAPIYVRVPFLEVNDPGEPSGLETLKDTPPPRLIKSHLPLALLPQTLLDQKVKVVYVARNPKDVAVSYYHFHRMEKAHPEPGTWDSFLEKFMAGEVSYGSWYQHVQEWWELSRTHPVLYLFYEDMKENPKREIQKILEFVGRSLPEETMDFMVQHTSFKEMKKNPMTNYTTVPQELMDHSISPFMRKGMAGDWKTTFTVAQNERFDADYAEKMAGCSLSFRSEL
notes: as for B1
For the protein B5, the kcat/Km in series [1] is 0.26 M⁻¹ s⁻¹.

B6: rSult1a1 (Rattus norvegicus) (protein)
chain: MEFSRPPLVHVKGIPLIKYFAETIGPLQNFTAWPDDLLISTYPKSGTTWMSEILDMIYQGGKLEKCGRAPIYARVPFLEFKCPGVPSGLETLEETPAPRLLKTHLPLSLLPQSLLDQKVKVIYIARNAKDVVVSYYNFYNMAKLHPDPGTWDSFLENFMDGEVSYGSWYQHVKEWWELRHTHPVLYLFYEDIKENPKREIKKILEFLGRSLPEETVDSIVHHTSFKKMKENCMTNYTTIPTEIMDHNVSPFMRKGTTGDWKNTFTVAQNERFDAHYAKTMTDCDFKFRCEL
notes: as for B2
Regarding B6, the kcat/Km in series [2] was determined as 5.3 M⁻¹ s⁻¹.

B7: mSult1d1 (Mus musculus) (protein)
chain: MDNKLDVFRRELVDVEGIPLFWSIAEHWSQVESFEARPDDILISTYPKSGTTWVSEILDLIYNNGDAEKCKRDAIYKRVPFMELIIPGITNGVEMLNNMPSPRIVKTHLPVQLLPSSFWKNDCKIIYVARNAKDVVVSYYYFYQMAKIHPEPGTWEEFLEKFMAGQVSFGPWYDHVKSWWEKRKEYRILYLFYEDMKENPKCEIQKILKFLEKDIPEEILNKILYHSSFSVMKENPSANYTTMMKEEMDHSVSPFMRKGISGDWKNQFTVAQYEKFEEDYVKKMEDSTLKFRSEI
notes: as for B2
As to B7, the kcat/Km in series [3] was found to be 4.8 M⁻¹ s⁻¹.

B8: hSULT1C2 (Homo sapiens) (protein)
chain: MALHDMEDFTFDGTKRLSVNYVKGILQPTDTCDIWDKIWNFQAKPDDLLISTYPKAGTTWTQEIVELIQNEGDVEKSKRAPTHQRFPFLEMKIPSLGSGLEQAHAMPSPRILKTHLPFHLLPPSLLEKNCKIIYVARNPKDNMVSYYHFQRMNKALPAPGTWEEYFETFLAGKVCWGSWHEHVKGWWEAKDKHRILYLFYEDMKKNPKHEIQKLAEFIGKKLDDKVLDKIVHYTSFDVMKQNPMANYSSIPAEIMDHSISPFMRKGAVGDWKKHFTVAQNERFDEDYKKKMTDTRLTFHFQF
notes: as for B1
Turning to B8, the specificity constant (kcat/Km) in series [1] amounted to 0.73 M⁻¹ s⁻¹.

What is called kcat/Km is the second-order rate constant that governs catalysis at low substrate concentration.

(Values after paper PMC4710668, “Bioactivation of food genotoxicants 5-hydroxymethylfurfural and furfuryl alcohol by sulfotransferases from human, mouse and rat: a comparative study” (Archives of Toxicology, 2014).)
